From article PMC7327021

Target: CTD1, C-terminal domain of major ampullate spidroin 1 of Latrodectus hesperus (Latrodectus hesperus)
Test: non-reducing SDS-PAGE; non-reducing SDS-PAGE of fractions of the Ni-IMAC purification of CTD1; disulphide-linked dimer

## CTD1, C-terminal domain of major ampullate spidroin 1 of Latrodectus hesperus (domain or fragment)
  stoichiometry N: 2
